What all share (format): cell-based
In experiment [1] the test system is ERK. Kind of experiment: ERK activity in Swiss 3T3 clones with inducible MEKKCOOH
The note with it: 17 hours IPTG induction.

Experiment [2] concerns JNK/SAPK. Kind of experiment: JNK/SAPK activity in Swiss 3T3 clones with inducible MEKKCOOH
Conditions: 17 hours IPTG induction. As for the experimental part:
JNK/SAPK: Activity was measured using GST (glutathione S-transferase)—c-Jun (1-79) BOUND to glutathione-Sepharose-4B (Hibi et al. supra). Cells expressing MEKKCOOH or control cells were lysed in 0.5% Nonidet P40 (NP40), 20 mM Tris-HCl, pH 7.6, 0.25 NaCl, 3 mM EDTA, 3 mM EGTA, 1 mM dithiothreitol, 1 mM phenylmethylsulfonyl fluoride, 2 mM sodium vanadate, 20 μg/ml aprotinin and 5 μg/ml leupeptin. Lysates were centrifuged at 15,000×g for 10 min to remove nuclei and supernatants (25 μg protein) mixed with 10 μl of GST-c-JUN(1-79)-Sepharose (3-5 μg of GST-c-Jun(1-79)). The mixture was rotated at 4° C. for 1 hr, washed 2× in lysis buffer and 1× in kinase buffer (20 mM Hepes, pH 7.5, 10 mM MgCl2, 20 mM β-glycerophosphate, 10 mM p-nitrophenyl phosphate, 1 mM dithiothreitol, 50 μM sodium vanadate). Beads were suspended in 40 μl of kinase buffer with 10 μCi Of [γ^32P] ATP and incubated at 30° C. for 20 min. Samples were boiled in Laemmli buffer and phosphorylated proteins resolved on SDS/10% polyacrylamide gels. To verify the selectivity of the JNK/SAPK assay cell lysates were fractionated by Mono Q ion exchange chromatography and each fraction assayed as described above. Fractions were also immunoblotted with a rabbit antisera recognizing JNK/SAPK. […]

The test system of experiment [3] is Gal4/Jun. Kind of experiment: Gal4-TK-luciferase transactivation analysis, Gal4/Jun. The note with it: IPTG-induced stable expression in Swiss 3T3 cells. From the text: (§1) Swiss 3T3 cells were transfected using calcium phosphate or lipofectamine with the reporter plasmid Gal4-TK-luciferase, which contains four Gal4 binding sites (Sadowski, I., et al. (1988). Nature 335, 563-564). adjacent to a minimal thymidine kinase (TK) promoter that controls expression of luciferase, in the presence or absence of activator plasmids encoding Gal4(1-147)/Myc(7-101) (Gupta et al. (1993) Proc. Natl. Acad. Sci. USA 90:3216-3220), Gal4(1-47)/Elk-1(83-428) (Marais, et al. (1993) Cell 73:381-393) or Gal4(1-147)/c-Jun(1-233) Hibi et al. (1993) Genes & Development 7:2135-2148). Transfections included pCMV5 without a cDNA insert (basal control), pCMV5MEKKCOOH and in some experiments pCMV5BxBRaf. Cells were incubated for 24-48 hr after transfection, lysed and assayed for luciferase activity. Values were normalized to equivalent μg protein for all experiments.

The subject of experiment [4] is Gal4/Myc. Kind of experiment: Gal4-TK-luciferase transactivation analysis, Gal4/Myc. The note with it: IPTG-induced stable expression in Swiss 3T3 cells.
Text: as §1

For experiment [5], the system named is REF52 cells. Put plainly: Cell morphology after microinjection of expression plasmids. Conditions: microinjected REF52 cells. As for the experimental part: Swiss 3T3 and REF52 cells were plated on acid-washed glass cover slips in Dulbecco's Modified Eagle's Medium (DMEM) and 10% bovine calf serum (BCS) or newborn calf serum (NCS). Cells were placed in DMEM/0.1% calf serum for overnight incubation prior to microinjection and used for injection at 50-70% confluence. Injections were performed with an Eppendorf automated microinjection system with needles pulled from glass capillaries on a vertical pipette puller (Kopf, Tujunga, Calif.). Cells were injected with pCMVβ-gal in the presence or absence of pCMV5MEKKCOOH or pCMV5BxBRaf at 20-100 ng/μl for each expression plasmid in 100 mM KC1, 5 mM NaPO4, pH 7.3. Following injection cells were placed in 1% NCS for 12-18 hr (Swiss 3T3) or 42 hr (REF52) prior to fixation with paraformaldehyde and staining. Similar results were obtained when cells were placed in 10% NCS after microinjection. Propidium iodide ([…]) was used to stain DNA. X-Gal reactions were performed for six hr.

The text below walks through data of patent US20080201790A1, “Method and product for regulating cell responsiveness to external signals” (priority 1993, published 2008).

B1: MEKKCOOH: a truncated activated form of MEKK1 including the entire kinase domain (protein)
chain: MAMSASQDALPIVPQLQVENGEDIIIIQQDTPETLPGHTKAKQPYREDAEWLKGQQIGLGAFSSCYQAQDVGTGTLMAVKQVTYVRNTSSEQEEVVEALREEIRMMGHLNHPNIIRMLGATCEKSNYNLFIEWMAGGSVAHLLSKYGAFKESVVINYTEQLLRGLSYLHENQIIHRDVKGANLLIDSTGQRLRIADFGAAARLASKGTGAGEFQGQLLGTIAFMAPEVLRGQQYGRSCDVWSVGCAIIEMACAKPPWNAEKHSNHLALIFKIASATTAPSIPSHLSPGLRDVAVRCLELQPQDRPPSRELLKHPVFRTTW
Take B1: the ERK activity result in experiment [1] was “did not activate either ERK or p38/Hog1 activity”. Besides, the JNK/SAPK activity result in experiment [2] is given as “stimulated JNK/SAPK activity”. In addition, in experiment [3], the Gal4/Jun activity entry was “little effect on Gal4/Jun activity”. The “transactivation function of c-Myc” value in experiment [4] is given as “markedly activated”. Moreover, the “cytoplasmic and nuclear morphology” value in experiment [5] was “dramatic cytoplasmic shrinkage and nuclear condensation”.
